The values below come from article PMC4176372, “The interplay of primer-template DNA phosphorylation status and single-stranded DNA binding proteins in directing clamp loaders to the appropriate polarity of DNA” (Nucleic Acids Research, 2014).

For assay [1], the target named is replication protein A (RPA) (UniProt P22336).
Assay [2] shares this target. This is another data set of the same source.
The target of assay [3] is T1, Saccharomyces cerevisiae clamp loader replication factor C (RFC) with a full-length Rfc1 subunit (S. cerevisiae, UniProt P38630 1-861; P40348 1-353; P38629 1-340; P40339 1-323; P38251 1-354).
T1 construct: Rfc1 subunit of S. cerevisiae RFC; Rfc2 subunit of S. cerevisiae RFC; Rfc3 subunit of S. cerevisiae RFC; Rfc4 subunit of S. cerevisiae RFC; Rfc5 subunit of S. cerevisiae RFC; Pentamer of Rfc1-5; source: E. coli BL21 (DE3) Rosetta, expressed from a single plasmid, purified (HighTrap SP, HighTrap heparin, MonoQ); copies: 1 + 1 + 1 + 1 + 1
Put plainly: stopped-flow fluorescence (PCNA-AF488_2 clamp closing); sequential mixing: 20 nM RFC, 20 nM PCNA-AF488_2 and 0.5 mM ATP incubated 4 s, then mixed with 40 nM 5′DNA pre-bound to 400 nM RPA, ATP and 200 nM unlabeled PCNA; 20°C; 30 mM HEPES pH 7.5, 150 mM NaCl, 10 mM MgCl2, 10% glycerol, 100 mM maltose. As to conditions: both partners purified.

In assay [4] the target is T1, Saccharomyces cerevisiae clamp loader …. Put plainly: stopped-flow fluorescence (PCNA-MDCC release from RFC); PCNA labeled with MDCC on the surface to which RFC binds; fluorescence of the RFC·PCNA-MDCC complex is greater than that of unbound PCNA-MDCC; release followed after mixing with DNA substrates with and without bound SSB/RPA; 20°C; single exponential fit. As to conditions: both partners purified.

replication protein A (RPA), sequence (P22336 whole entry, chain 1 of 3): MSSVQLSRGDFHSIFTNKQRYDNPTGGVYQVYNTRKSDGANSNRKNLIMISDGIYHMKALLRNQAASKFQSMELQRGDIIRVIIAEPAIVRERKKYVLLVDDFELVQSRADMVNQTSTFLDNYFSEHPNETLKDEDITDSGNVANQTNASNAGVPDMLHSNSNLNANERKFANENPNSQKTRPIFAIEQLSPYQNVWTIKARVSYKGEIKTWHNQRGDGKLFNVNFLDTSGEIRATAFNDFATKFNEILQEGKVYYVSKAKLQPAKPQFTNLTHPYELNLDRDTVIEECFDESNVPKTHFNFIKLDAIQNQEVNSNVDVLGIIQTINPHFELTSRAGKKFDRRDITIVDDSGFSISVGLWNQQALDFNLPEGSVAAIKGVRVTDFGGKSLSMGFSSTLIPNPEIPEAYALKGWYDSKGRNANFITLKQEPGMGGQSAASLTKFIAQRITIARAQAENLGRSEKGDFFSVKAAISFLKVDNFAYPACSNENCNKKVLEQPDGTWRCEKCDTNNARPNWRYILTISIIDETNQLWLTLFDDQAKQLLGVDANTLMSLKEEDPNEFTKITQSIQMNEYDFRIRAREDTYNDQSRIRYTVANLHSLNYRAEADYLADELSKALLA
replication protein A (RPA), sequence (P26754 whole entry, chain 2 of 3, further chain): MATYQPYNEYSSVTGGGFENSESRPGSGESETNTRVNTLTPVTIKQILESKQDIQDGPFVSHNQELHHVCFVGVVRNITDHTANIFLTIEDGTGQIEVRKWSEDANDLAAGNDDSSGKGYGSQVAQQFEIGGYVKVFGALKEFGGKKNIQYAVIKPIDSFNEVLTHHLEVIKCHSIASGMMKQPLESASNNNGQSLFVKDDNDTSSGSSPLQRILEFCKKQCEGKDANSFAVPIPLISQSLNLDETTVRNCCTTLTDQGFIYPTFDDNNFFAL
replication protein A (RPA), sequence (P26755 whole entry, chain 3 of 3, further chain): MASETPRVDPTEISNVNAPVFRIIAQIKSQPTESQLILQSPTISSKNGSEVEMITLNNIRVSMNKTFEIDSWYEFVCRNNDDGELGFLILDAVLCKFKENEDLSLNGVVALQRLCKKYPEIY

In assay [1], “Saccharomyces cerevisiae clamp loader replication factor C (RFC) with a full-length Rfc1 subunit (from UniProt P38630 1-861; P40348 1-353; P38629 1-340; P40339 1-323; P38251 1-354) (complex)” showed a k obs1 of PCNA-AF488 2 closing by RFC on 3′DNA·RPA of 4.4 s⁻¹ and a kobs of PCNA-AF488 2 closing by RFC on phosphorylated 5′DNA·RPA of 0.09 s⁻¹. In assay [2], this molecule registered a k obs1 of PCNA closing by RFC on 3′DNA with the non-cognate SSB substituted for RPA of 4.6 s⁻¹ and a rate of PCNA closing by RFC on 5′DNA with the non-cognate SSB substituted for RPA of 0.45 s⁻¹.

B1: PCNA-AF488_(2) (S. cerevisiae PCNA, C22/62/81S, I111C, I181C, labeled with AF488) (natural protein, UniProt P15873 1-258, looked up)
chain: MLEAKFEEASLFKRIIDGFKDSVQLVNFQCKEDGIIAQAVDDSRVLLVSLEIGVEAFQEYRSDHPVTLGMDLTSLSKILRSGNNTDTLTLIADNTPDSIILLFEDTKKDRCAEYSLKLMDIDADFLKIEELQYDSTLSLPSSEFSKIVRDLSQLSDSINIMITKETIKFVADGDIGSGSVCIKPFVDMEHPETSIKLEMDQPVDLTFGAKYLLDIIKGSSLSDRVGIRLSSEAPALFQFDLKSGFLQFFLAPKFNDEE
modifications: AF488 on the cysteines introduced at positions 111 and 181
notes: proliferating cell nuclear antigen (PCNA), the S. cerevisiae sliding clamp; also called fluorescent PCNA; source: purified as described previously
For B1, the binding result in assay [3] was “binds”.

B2: PCNA-MDCC (S. cerevisiae PCNA, C22/62/81S, S43C, labeled with MDCC) (natural protein, UniProt P15873 1-258, looked up)
chain: MLEAKFEEASLFKRIIDGFKDSVQLVNFQCKEDGIIAQAVDDCRVLLVSLEIGVEAFQEYRSDHPVTLGMDLTSLSKILRSGNNTDTLTLIADNTPDSIILLFEDTKKDRIAEYSLKLMDIDADFLKIEELQYDSTLSLPSSEFSKIVRDLSQLSDSINIMITKETIKFVADGDIGSGSVIIKPFVDMEHPETSIKLEMDQPVDLTFGAKYLLDIIKGSSLSDRVGIRLSSEAPALFQFDLKSGFLQFFLAPKFNDEE
modifications: MDCC on the cysteine introduced at position 43
notes: proliferating cell nuclear antigen (PCNA), the S. cerevisiae sliding clamp; source: purified as described previously
Take B2: the binding result in assay [4] was “binds”.
